Experimental findings from patent publication US20080292620A1 (Novartis, published 2008) are described below.

Substitutions are numbered along the chain they refer to.

T1: recombinant extracellular domain (ECD) of the human prolactin receptor (PRLR) (human, UniProt P16471 25-234)
T1 construct: also called PRLR ECD; Human PRLR; not shown: His tag
T1 sequence: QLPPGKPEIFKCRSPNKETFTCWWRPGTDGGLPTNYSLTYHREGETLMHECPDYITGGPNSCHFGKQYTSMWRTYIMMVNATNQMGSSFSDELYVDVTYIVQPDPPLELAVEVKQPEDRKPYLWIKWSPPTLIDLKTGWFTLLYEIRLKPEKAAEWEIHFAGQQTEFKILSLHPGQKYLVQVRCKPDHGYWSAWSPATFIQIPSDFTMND

T2: cynomolgus PRLR ECD (cynomolgus, UniProt A0A2K5WXK1 25-234)
T2 construct: extracellular domain; also called Cyno PRLR
T2 sequence: T1 sequence with I76V, A110T, I125M, I158T, T207I

T3: murine PRLR ECD (mouse, UniProt Q08501 20-229)
T3 construct: extracellular domain; also called Mouse PRLR
T3 sequence (looked up): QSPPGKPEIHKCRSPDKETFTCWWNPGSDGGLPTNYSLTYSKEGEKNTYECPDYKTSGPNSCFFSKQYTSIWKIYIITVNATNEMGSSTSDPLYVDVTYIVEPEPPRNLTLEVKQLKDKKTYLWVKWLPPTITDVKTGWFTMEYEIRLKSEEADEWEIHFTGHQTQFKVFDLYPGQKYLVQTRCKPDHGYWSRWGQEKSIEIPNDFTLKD

T4: rat PRLR ECD (rat, UniProt P05710 20-229)
T4 construct: extracellular domain
T4 sequence (looked up): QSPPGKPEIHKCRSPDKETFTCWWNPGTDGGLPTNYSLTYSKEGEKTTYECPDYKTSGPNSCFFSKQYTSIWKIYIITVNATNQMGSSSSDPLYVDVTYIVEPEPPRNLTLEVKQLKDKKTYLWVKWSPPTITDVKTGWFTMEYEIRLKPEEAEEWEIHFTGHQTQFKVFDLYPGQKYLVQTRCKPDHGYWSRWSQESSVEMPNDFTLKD

B1: XPA.06.178 (Fc fusion)
chain 1: EVQLLESGGGLVQPGGSLRLSCAASGFTFDDYGMSWVRQVPGKGLEWVSLISWDGGSTYYADSVKGRFTISRDNSKNTLYLQMNSLRAEDTAVYYCARPSGAYPTPFDNWGQGTLVTV
chain 2: not shown
B2: XPA.06.158 (Fc fusion)
chain 1: EVQLLESGGGLVQPGGSLRLSCAASGFTFSSYGMHWVRQAPGKGLEWVSLISWDGYRTHYADSVKGRFTISRDNSKNTLYLQMNSLRAEDTAMYYCTTGASYHALWGQGTLVTV
chain 2: QSVLTQPPSASGTPGQRVTISCSGSRSNIGNNYVSWYQQLPGTAPKLLIYDDIKRPSGVPDRFSGSKSGTSASLAISGLRSEDEADYYCATWDDSLNGPVFGGGTKLTVL
B3: XPA.06.145 (Fc fusion)
chain 1: EVQLLESGGGLVQPGGSLRLSCAASGFTFSNYGMHWVRQAPGKGLEWVSLISWDGGRTSYTDSVKGRFTISRDNSKNTLYLQMNSLRAEDTAVYYCARGLIGDNWGQGTLVTVSS
chain 2: QSVLTQPPSASGTPGQRVTISCTGSSSNIGAGYDVHWYQQLPGTAPKLLIYDNNKRPSGVPDRFSGSKSGTSASLAISGLRSEDEADYYCAAWDDSLNGWVFGGGTKLTVL
B4: XPA.06.167 (Fc fusion)
chain 1: EVQLLESGGGLVQPGGSLRLSCAASGFTFGSYGMHWVRQAPGKGLEWVSLISWDGGSTYYADSVKGRFTISRDNSKNTLYLQMNSLRAEDTAVYYCASSISAAATGLDYWGQGTLVTV
chain 2: not shown
B5: XPA.06.217 (Fc fusion)
chain 1: EVQLLESGGGLVQPGGSLRLSCAASGFTFSSYAMHWVRQAPGKGLEWVSSISSSSSSIYYADSVKGRFTISRDNSKNTLYLQMNSLRAEDTAVYYCARGGGQQLGAFDIWGQGTLVTV
chain 2: not shown
B6: he.06.642-2 (antibody, V domains shown)
VH: EVQLVESGGGLVQPGGSLRLSCAVSGFTFSSYGMSWVRQAPGKGLEWVATVSSGGTYTYYPDSVKGRFTISRDNSKNTLYLQMNSLRAEDTAVYYCARHRGNYYATYYYAMDYWGQGTLVTVSS
VL: DIVLTQSPDSLAVSLGERATINCKASKSVSTSGYTYMHWYQQKPGQPPKLLIYLASNRESGVPDRFSGSGSGTDFTLTISPVQAEDVATYYCQHSGELPPSFGQGTKLEIK
notes: Human Engineered
B7: XPA.06.147 (Fc fusion)
chain 1: EVQLLESGGGLVQPGGSLRLSCAASGFTFSSYGMHWVRQAPGKGLEWVSAIGGRGVSTYYADSVKGRFTISRDNSKNTLYLQMNSLRAEDTAVYYCARGSNWTHALGFDPWGQGTLVTV
chain 2: not shown
B8: XPA.06.141 (Fc fusion)
chain 1: EVQLLESGGGLVQPGGSLRLSCAASGFTFSNSGMHWVRQAPGKGLEWVAAISYDGSNKYYADSVKGRFTISRDNSKNTLYLQMNSLRAEDTAVYYCARADSSGTVDYWGQGTLVTV
chain 2: not shown
B9: XPA.06.131 (Fc fusion)
chain 1: EVQLLESGGGLVQPGGSLRLSCAASGFTFNSYPVHWVRQAPGKGLEWVAVISYDGNTKYYADSVKGRFTISRDNSKNTLYLQMNSLRAEDTAVYYCARDNPPFDYWGQGTLATV
chain 2: QSVLTQPPSASGTPGQRVTISCSGSSSNIGNNYVSWYQQLPGTAPKLLIYDNNNRPSGVPDRFSGSKSGTSASLAISGLRSEDEADYYCEAWDDTLNGPHVVFGGGTKLTVL
B10: he.06.275-1 (antibody, V domains shown)
VH: DVQLQESGPGLVKPSQTLSLTCTVTGYSITSDYAWNWIRQFPGKKLEWMGYISYSGSTSYNPSLKSRITISRDTSKNQFSLQLNSVTAADTATYFCARDYGYVFDYWGQGTTLTVSS
VL: DVQITQSPSSLSASPGDRITLTCRASKNIYKYLAWYQEKPGKTNNLLIYSGSTLHSGIPSRFSGSGSGTDFTLTISSLQPEDFAMYYCQQHNDYPYTFGQGTKLEIK
notes: Human Engineered
B11: he.06.275-3 (antibody, V domains shown)
VH: B10 VH
VL: B10 VL with T43A, N45K
notes: Human Engineered
B12: he.06.275-2 (antibody, V domains shown)
VH: B10 VH with D1Q, T25S, K45G, T93V
VL: B10 VL
notes: Human Engineered
B13: he.06.642-1 (antibody, V domains shown)
VH: B6 VH with G44R, V93M
VL: B6 VL
notes: Human Engineered

For the first experiment, the target named is T1, recombinant extracellular domain (ECD) …. Briefly: Biacore 2000 SPR, antibody captured, PRLR ECD injected. A general note: Surface plasmon resonance follows binding to a sensor surface in real time, without labels.
As usually defined, the Kd is the free concentration of one partner at which half of the binding sites on the other are occupied at equilibrium, for simple one-to-one binding. Turning to B1, the Kd is 20 nM.
B2: the Kd turned out to be 0.7 nM.
In the case of B3, the Kd was 10 nM.
Turning to B4, the dissociation constant Kd stood at 4 nM.
Still for that read-out and setting: in the case of B5 it was 7 nM.

The next experiment shares this target. Put plainly: Biacore SPR, antibody covalently immobilized on CM4 chip, PRLR ECD 111 to 1.37 nM.
In the case of B6, the Kd is 2.6 nM.

A further experiment deals with T2, cynomolgus PRLR ECD. The experiment is described as above.
Molecule B6 yielded a Kd of 38.9 nM.

The target of another experiment is T3, murine PRLR ECD. Described as above.
The molecule B6 showed a Kd of 2.7 nM.

In the next experiment the target is T4, rat PRLR ECD. The experiment is described as above.
For B6, the affinity, expressed as Kd, was 1.9 nM.

The target of another experiment is T1, recombinant extracellular domain (ECD) …. Briefly: Biacore 2000 SPR, antibody captured on Protein A/G, PRLR ECD titrated, 1:1 Langmuir, 25 C.
Broadly, the koff is a measure of how fast the partners let go of each other. As usually defined, the kon is a measure of how fast the partners come together. For B7, the Kd was determined as 9.8 nM, the koff is 0.0053 s⁻¹ and the kon came to 550000 M⁻¹ s⁻¹.
For B2, the Kd came to 0.7 nM, the koff amounted to 7.3e-05 s⁻¹ and the kon turned out to be 110000 M⁻¹ s⁻¹.
On the same counts, the results for B8 are 8.4 nM, 0.00053 s⁻¹ and 63000 M⁻¹ s⁻¹.
With B9, the Kd amounted to 2.1 nM, the koff is 7.3e-05 s⁻¹ and the kon worked out at 34000 M⁻¹ s⁻¹.

Another experiment has the same target. Briefly: Biacore SPR, antibody captured on Protein A/G, kinetic titration of PRLR ECD, 1:1 Langmuir. How it is done: (§1) Affinity of the chimerized and Human Engineered™ antibodies determined by Biacore analysis. Briefly, a CM5 sensor chip (Biacore) immobilized with Protein A/G (Pierce) via NHS/EDC was used to capture approximately 600 RU of antibody on the chip surface. Five concentrations of PRLR ECD beginning at 5 ug/mL (185 nM) and serially diluted at 5× dilution to 0.3 nM were injected from lowest to highest concentration in the kinetic titration injection mode, and 15 minutes of dissociation data was collected. The experiments were double-referenced, i.e. an adjacent flow cell response was subtracted automatically, and the response from a buffer injection experiment was subtracted from the experimental data set. Kinetic and derived parameters (kₐ, kd and KD) were determined by fitting to a 1:1 Langmuir model using BiaEval software customized to the kinetic titration injection mode. Affinity measurements of both chimeric and all Human Engineered™ antibodies against human and cynomolgus PRLR ECD are summarized in Table 9 and Table 10.
As for B10, the Kd amounted to 0.5 nM.
Still for that read-out and setting: in the case of B11 it was 0.43 nM; in that of B12, 0.61 nM; in that of B13, 2 nM.
With B6, the Kd was 3.1 nM.

A further experiment deals with T2, cynomolgus PRLR ECD. The experiment is described as above. How it is done: as §1
B10 gave a Kd of 1.6 nM.
Consider B11, for which the Kd was found to be 1.3 nM.
On the same count and under the same terms, in the case of B12 it was 1.9 nM.
Same read-out and setting: next, B13: 31 nM; B6: 47 nM.
